# Reference: PMC11064669
# Experiments:
# [1] = biological target: LC3B residues 1-120 F52A/L53A (UniProt Q9GZQ8); assay: ITC
# [2] = biological target: LC3B residues 1-120 WT (UniProt Q9GZQ8); assay: ITC
substance,measurement,setting,value
tepsin LIR motif peptide (residues 185-193),Kd,[1],> 300 µM
same,Kd,[2],44.4 µM
same,stoichiometry N,[2],0.523
